Drawing on PMC9666628 (Nature Communications, 2022), this text covers Kd for one molecule.

“And” between values parts separate entries of the source, which are not always exact repeats. Equal values may be shown once.

What all share (experiment): BLI; biotinylated peptide on streptavidin biosensor tips, chromodomain in solution at 5 or 1 µM; 25 °C; 25 mM HEPES pH 7.0, 150 mM NaCl, 1 mg/ml BSA, 0.01% Tween-20; steady-state fit, Langmuir model; values of single replicates
Holding throughout (conditions): both partners purified

The target of one assay is T1, Cbx7.V1 back-mutant E33K (human, UniProt O95931 7-66, E8D (printed as the back-mutation D8E) | Q9D | V10I (printed as the …)).
T1 construct: chromodomain of human Cbx7, variant V1 with residue 33 put back to the wild type; residues numbered on full-length Cbx7; Tags probably still on the protein in BLI (removal is told for FP and ITC only); source: E. coli BL21(DE3), purified (Ni-NTA)
T1 sequence: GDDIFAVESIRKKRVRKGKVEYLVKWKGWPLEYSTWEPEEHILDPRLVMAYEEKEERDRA

The target of the next assay is T2, Cbx7.V1 back-mutant L37P (human, UniProt O95931 7-66, E8D (printed as the back-mutation D8E) | Q9D | V10I (printed as the …)).
T2 construct: chromodomain of human Cbx7, variant V1 with residue 37 put back to the wild type; residues numbered on full-length Cbx7; Tags probably still on the protein in BLI (removal is told for FP and ITC only); source: E. coli BL21(DE3), purified (Ni-NTA)
T2 sequence: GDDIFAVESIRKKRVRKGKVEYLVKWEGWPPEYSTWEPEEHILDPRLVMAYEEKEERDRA

A further assay deals with T3, Cbx7.V1 back-mutant D8E (human, UniProt O95931 7-66, Q9D | V10I (printed as the back-mutation I10V) | K33E | P37L (printed as the …)).
T3 construct: chromodomain of human Cbx7, variant V1 with residue 8 put back to the wild type; residues numbered on full-length Cbx7; Tags probably still on the protein in BLI (removal is told for FP and ITC only); source: E. coli BL21(DE3), purified (Ni-NTA)
T3 sequence: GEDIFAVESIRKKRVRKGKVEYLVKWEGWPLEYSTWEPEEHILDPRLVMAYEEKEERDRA

In assay [1] the target is T4, Cbx7.V1 chromodomain variant (protein used for BLI) (human, UniProt O95931 7-66, E8D (printed as the back-mutation D8E) | Q9D | V10I (printed as the …)).
T4 construct: chromodomain of human Cbx7 with the six substitutions of the phage-selected variant V1; residues numbered on full-length Cbx7; for BLI they were probably still on the protein; source: E. coli BL21(DE3), purified (Ni-NTA)
T4 sequence: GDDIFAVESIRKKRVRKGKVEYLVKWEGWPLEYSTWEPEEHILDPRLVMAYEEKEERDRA

Another assay addresses T5, Cbx7.V1 back-mutant I10V (human, UniProt O95931 7-66, E8D (printed as the back-mutation D8E) | Q9D | K33E | P37L (printed as the …)).
T5 construct: chromodomain of human Cbx7, variant V1 with residue 10 put back to the wild type; residues numbered on full-length Cbx7; Tags probably still on the protein in BLI (removal is told for FP and ITC only); source: E. coli BL21(DE3), purified (Ni-NTA)
T5 sequence: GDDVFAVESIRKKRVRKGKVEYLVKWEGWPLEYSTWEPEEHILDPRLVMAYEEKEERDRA

The next assay addresses T6, Cbx7.V1 back-mutant E38K (human, UniProt O95931 7-66, E8D (printed as the back-mutation D8E) | Q9D | V10I (printed as the …)).
T6 construct: chromodomain of human Cbx7, variant V1 with residue 38 put back to the wild type; residues numbered on full-length Cbx7; Tags probably still on the protein in BLI (removal is told for FP and ITC only); source: E. coli BL21(DE3), purified (Ni-NTA)
T6 sequence: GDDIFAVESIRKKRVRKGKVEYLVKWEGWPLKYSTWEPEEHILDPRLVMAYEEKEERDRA

B1: H3K9me3 peptide, biotinylated (peptide)
chain: ARTKQTARKSTGGKAPR
modifications: trimethyl-lysine at K9; biotin followed by an aminohexanoic acid linker at the N-terminus
Turning to B1, the Kd with Cbx7.V1 back-mutant E33K is 8.5 µM and 12 µM; with Cbx7.V1 back-mutant L37P, 2.7 µM and 3.3 µM; in the assay with Cbx7.V1 back-mutant D8E it was 5.3 µM and 4.7 µM; in assay [1], 4.9 µM and 4.2 µM; with Cbx7.V1 back-mutant I10V, 4 µM and 3 µM; in the assay with Cbx7.V1 back-mutant E38K, 1.9 µM and 2.1 µM.
